# Laboratory results from patent US20230382970A1 (HANMI PHARM, published 2023).
# Numbered stars: 1 amine (or outer) side, 2 acyl side, 3 side chain; on linkers, the order of the positions; unused ones are H or OH. Bridge positions count the residues as written; N and C are the ends. Square brackets hold non-standard residues; d marks the D form. Ends that are not written are not given here. * marks the point of attachment. HAY = 2-(4-hydroxyphenyl)acetic acid replacing N-terminal Tyr, O=C(Cc1ccc(O[*:3])cc1)[*:2]; Desaminotyrosyl = O=C(CCc1ccc(O)cc1)*; Aib = CC(C)(N)C(=O)O
# Tests used:
# [1] = target: human GLP-1 receptor (human, UniProt P43220 24-463); assay: cell-based or functional assay
# [2] = target: T1, human GIP receptor (human, UniProt P48546 22-466); assay: cell-based or functional assay
# T1 sequence (looked up): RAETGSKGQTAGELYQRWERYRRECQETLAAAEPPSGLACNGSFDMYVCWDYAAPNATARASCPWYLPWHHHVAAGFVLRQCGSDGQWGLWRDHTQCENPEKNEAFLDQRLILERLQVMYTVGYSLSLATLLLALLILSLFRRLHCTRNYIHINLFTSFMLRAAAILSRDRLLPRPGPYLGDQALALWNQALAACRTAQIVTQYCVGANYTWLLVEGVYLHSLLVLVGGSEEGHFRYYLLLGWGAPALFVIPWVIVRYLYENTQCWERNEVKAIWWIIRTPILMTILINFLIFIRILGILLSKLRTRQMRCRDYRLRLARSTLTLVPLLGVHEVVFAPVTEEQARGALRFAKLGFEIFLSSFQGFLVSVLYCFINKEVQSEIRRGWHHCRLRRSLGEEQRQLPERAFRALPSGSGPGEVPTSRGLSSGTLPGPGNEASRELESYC
Binder,"In vitro activity (%) compared to native-type peptide, vs human GLP-1 (cAMP EC50, human GLP-1 receptor-expressing CHO cells) [1]","In vitro activity (%) compared to native-type peptide, vs human GIP (cAMP EC50, human GIP receptor-expressing CHO cells) [2]"
Y[Aib]EGTFTSDYSIAMDAIAQQDFVNWLLAQRGKKSDWKHNITQC [GLP-1/GIP dual agonist of SEQ ID NO: 27],0.2%,55.5%
Y[Aib]EGTFTSDYSKYLDEKAAKDFVQWLLDHHPSSGQPPPSC (bridge 16-20) [GLP-1/GIP dual agonist of SEQ ID NO: 5],20.2%,48.2%
[HAY][Aib]EGTFTSDYSI[Aib]LDKIAQRAFVQWLIAGGPSSGAPPPSK [GLP-1/GIP dual agonist of SEQ ID NO: 32],88.3%,20.1%
Y[Aib]EGTFTSDYSIYLDERACKDFVQWLLDHHPSSGQPPPSYK (bridge 16-20) [GLP-1/GIP dual agonist of SEQ ID NO: 15],97.5%,64.4%
Y[Aib]EGTFTSDYSEYMEKEAVREFISWLVRGGPSSGAPPPSK (bridge 12-16) [GLP-1/GIP dual agonist of SEQ ID NO: 13],116%,
Y[Aib]EGTFTSDYSI[Aib]LDKQAARAFVQWLIAGGPSSGAPPPSC [GLP-1/GIP dual agonist of SEQ ID NO: 34],34.2%,63.4%
Y[Aib]EGTFTSDYSKYLDEIRAKDFVQWLLDHHPSSGQPPPSC (bridge 16-20) [GLP-1/GIP dual agonist of SEQ ID NO: 2],3.3%,28.8%
Y[Aib]EGTFTSDYSI[Aib]LDKIAAKAFVQWLIAGGPSSGAPPPSC [GLP-1/GIP dual agonist of SEQ ID NO: 21],19.7%,23.2%
Y[Aib]EGTFTSDYSEYMEKEAVREFIAWLVKGGPSSGAPPPSC (bridge 12-16) [GLP-1/GIP dual agonist of SEQ ID NO: 1],53.9%,27.5%
Y[Aib]EGTFTSDYSIAMDAIAQQDFVNWLLAQKGKKNDWKHNITQC [GLP-1/GIP dual agonist of SEQ ID NO: 26],0.3%,57.9%
Y[Aib]EGTFTSDYSRYLDERASKDFVQWLLDHHPSSGQPPPSK (bridge 16-20) [GLP-1/GIP dual agonist of SEQ ID NO: 11],95%,
Y[Aib]EGTFTSDYSI[Aib]LDKQAA[Aib]EFVNWLL[Aib]GGPSSGAPPPSC [GLP-1/GIP dual agonist of SEQ ID NO: 29],0.5%,96%
H[Aib]EGTFTSDYSKYLDKKRQ[Aib]EFVQWLLNGGPSSGAPPPSC [GLP-1/GIP dual agonist of SEQ ID NO: 14],160%,0.3%
Y[Aib]EGTFTSDYSI[Aib]LDKQAA[Aib]AFVQWLIAGGPSSGAPPPSC [GLP-1/GIP dual agonist of SEQ ID NO: 20],31.5%,64.2%
Y[Aib]EGTFTSDYSIQLDKIAQKAFVQWLIAGGPSSGAPPPSC [GLP-1/GIP dual agonist of SEQ ID NO: 17],19.8%,7.7%
Y[Aib]EGTFTSDYSI[Aib]LDKQAA[Aib]EFVNWLL[Aib]GHPSSGAPPPSC [GLP-1/GIP dual agonist of SEQ ID NO: 30],1%,63.4%

Binder,"In vitro activity (%) compared to native-type peptide, vs human GLP-1 (cAMP EC50, human GLP-1 receptor-expressing CHO cells) [1]","In vitro activity (%) compared to native-type peptide, vs human GIP (cAMP EC50, human GIP receptor-expressing CHO cells) [2]"
Y[Aib]EGTFTSDYSKYLDEIAQKDFVQWLLDQHPSSGAPPPSC (bridge 16-20) [GLP-1/GIP dual agonist of SEQ ID NO: 24],7.3%,83.9%
Y[Aib]EGTFTSDYSRYLDERAQKDFVQWLLDHHPSSGQPPPSK (bridge 16-20) [GLP-1/GIP dual agonist of SEQ ID NO: 10],108%,
Y[Aib]EGTFTSDYSKYLDERASKDFVQWLLDHHPSSGQPPPSC (bridge 16-20; also: ring type not given here) [GLP-1/GIP dual agonist of SEQ ID NO: 8],35.9%,29.2%
Y[Aib]EGTFTSDYSKYLDEIAAKDFVQWLLDHHPSSGQPPPSC (bridge 16-20) [GLP-1/GIP dual agonist of SEQ ID NO: 3],6.8%,28.7%
Y[Aib]EGTFTSDYSKYLDEEAVKLFVQWLLDQHPSSGAPPPSC (bridge 16-20) [GLP-1/GIP dual agonist of SEQ ID NO: 25],3.2%,59.4%
Y[Aib]EGTFTSDYSRYLDERAAKDFVQWLLDHHPSSGQPPPSK (bridge 16-20) [GLP-1/GIP dual agonist of SEQ ID NO: 9],141%,
Y[Aib]EGTFTSDYSKYLDEQAAKEFVQWLLDQHPSSGAPPPSC (bridge 16-20) [GLP-1/GIP dual agonist of SEQ ID NO: 23],13.5%,106%
Y[Aib]EGTFTSDYSEYMEKEAVREFIAWLVRGGPSSGAPPPSK (bridge 12-16) [GLP-1/GIP dual agonist of SEQ ID NO: 12],110%,
Y[Aib]EGTFTSDYSI[Aib]LDKIAQRAFVQWLIAGGPSSGAPPPSK [GLP-1/GIP dual agonist of SEQ ID NO: 16],60%,72.3%
Y[Aib]EGTFTSDYSIALEKQAQQDFVNWLLAGGPSSGAPPPSC [GLP-1/GIP dual agonist of SEQ ID NO: 28],6.7%,146%
Y[Aib]EGTFTSDYSIQLDKIAQRAFVQWLIAGGPSSGAPPPSK [GLP-1/GIP dual agonist of SEQ ID NO: 18],43.3%,15.9%
[Desaminotyrosyl][Aib]EGTFTSDYSI[Aib]LDKIAQRAFVQWLIAGGPSSGAPPPSK [GLP-1/GIP dual agonist of SEQ ID NO: 31],93.3%,38.3%
Y[Aib]EGTFTSDYSKYLDERAQKDFVQWLLDHHPSSGQPPPSC (bridge 16-20; also: ring type not given here) [GLP-1/GIP dual agonist of SEQ ID NO: 7],18.3%,62.3%
Y[Aib]EGTFTSDYSKYLDEKAAKEFVQWLLDQHPSSGQPPPSC (bridge 16-20) [GLP-1/GIP dual agonist of SEQ ID NO: 22],41.1%,39.6%
Y[Aib]EGTFTSDYSIYLDKQAA[Aib]AFVQWLIAGGPSSGAPPPSC [GLP-1/GIP dual agonist of SEQ ID NO: 19],32.8%,13.9%
